Test results as given in publication PMC7018707, “FUS Recognizes G Quadruplex Structures Within Neuronal mRNAs”.

Biological target: full-length FUS wild type (UniProt P35637 1-526)
Assay: steady-state fluorescence (2-AP); 150 mM KCl, 5-fold excess BSA; Fluorescence: 10 mM cacodylic acid pH 6.5, 150 mM KCl, 23 C, 150 or 200 nM RNA, 5-fold excess BSA or HCV peptide; pull-down: 5 uM probe annealed in the same buffer, room temperature, RIPA lysate and washes; native PAGE 20%, RNA:peptide 1:1 to 1:3
Conditions: protein: recombinant, G quadruplex

full-length FUS wild type, sequence (P35637 whole entry): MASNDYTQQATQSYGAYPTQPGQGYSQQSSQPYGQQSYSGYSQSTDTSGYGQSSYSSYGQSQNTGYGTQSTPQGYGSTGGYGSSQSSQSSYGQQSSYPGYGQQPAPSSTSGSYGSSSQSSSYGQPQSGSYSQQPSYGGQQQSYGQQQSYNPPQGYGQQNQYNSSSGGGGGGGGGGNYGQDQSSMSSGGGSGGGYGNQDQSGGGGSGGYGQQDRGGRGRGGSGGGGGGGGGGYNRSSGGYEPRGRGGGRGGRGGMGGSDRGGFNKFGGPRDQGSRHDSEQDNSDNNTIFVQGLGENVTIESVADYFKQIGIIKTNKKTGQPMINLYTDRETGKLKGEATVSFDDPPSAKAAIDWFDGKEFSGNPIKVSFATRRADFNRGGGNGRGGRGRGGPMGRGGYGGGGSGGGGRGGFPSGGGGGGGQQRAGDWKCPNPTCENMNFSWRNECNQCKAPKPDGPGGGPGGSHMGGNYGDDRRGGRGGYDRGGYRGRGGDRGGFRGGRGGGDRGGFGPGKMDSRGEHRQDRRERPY

| Binder | Kd (label: 2-AP at position 18) | Kd (label: 2-AP at position 4) |
| --- | --- | --- |
| GGGGUUGGGGAGGGUGUAGGGGGUGGGG (structured_RNA, A18 replaced by 2-aminopurine) [Shank1a GQ 2-AP] | 88 ± 27 nM |  |
| GGGAGGGAGGGUGGG (structured_RNA, A4 replaced by 2-aminopurine) [PSD-95 GQ2 2-AP] |  | 28 ± 10 nM |
